The values that follow come from the DeepSol protein solubility set.

A short description of the data set: soluble on expression in E. coli; label from the status in PepcDB or PDB records.
Turning to “MSCVHYKFSSKLNYDTVTFDGLHISLCDLKKQIMGREKLKAADCDLQITNAQTKEEYTDDNALIPKNSSVIVRRIPIGGVKSTSKTYVISRTEPAMATTKAIDDSSASISLAQLTKTANLAEANASEEDKIKAMMSQSGHEYDPINYMKKPLGPPPPSYTCFRCGKPGHYIKNCPTNGDKNFESGPRIKKSTGIPRSFMMEVKDPNMKGAMLTNTGKYAIPTIDAGRLLFHKLGTMGHKQIDTYFWNRGDVYGATATQITHLREAYAIGKKEKPPFLPEEPSSSSEEDDPIPDELLCLICKDIMTDAVVIPCCGNSYCDECIRTALLESDEHTCPTCHQNDVSPDALIANKFLRQAVNNFKNETGYTKRLRKQLPPPPPPIPPPRPLIQRNLQPLMRSPISRQQDPLMIPVTSSSTHPAPSISSLTSNQSSLAPPVSGNPSSAPAPVPDITATVSISVHSEKSDGPFRDSDNKILPAAALASEHSKGTSSIAITALMEEKGYQVPVLGTPSLLGQSLLHGQLIPTTGPVRINTARPGGGRPGWEHSNKLGYLVSPPQQIRRGERSCYRSINRGRHHSERSQRTQGPSLPATPVFVPVPPPPLYPPPPHTLPLPPGVPPPQFSPQFPPGQPPPAGYSVPPPGFPPAPANLSTPWVSSGVQTAHSNTIPTTQAPPLSREEFYREQRRLKEEEKKKSKLDEFTNDFAKELMEYKKIQKERRRSFSRSKSPYSGSSYSRSSYTYSKSRSGSTRSRSYSRSFSRSHSRSYSRSPPYPRRGRGKSRNYRSRSRSHGYHRSRSRSPPYRRYHSRSRSPQAFRGQSPNKRNVPQGETEREYFNRYREVPPPYDMKAYYGRSVDFRDPFEKERYREWERKYREWYEKYYKGYAAGAQPRPSANRENFSPERFLPLNIRNSPFTRGRREDYVGGQSHRSRNIGSNYPEKLSARDGHNQKDNTKSKEKESENAPGDGKGNKHKKHRKRRKGEESEGFLNPELLETSRKSREPTGVEENKTDSLFVLPSRDDATPVRDEPMDAESITFKSVSEKDKRERDKPKAKGDKTKRKNDGSAVSKKENIVKPAKGPQEKVDGERERSPRSEPPIKKAKEETPKTDNTKSSSSSQKDEKITGTPRKAHSKSAKEHQETKPVKEEKVKKDYSKDVKSEKLTTKEEKAKKPNEKNKPLDNKGEKKKKK”, the “soluble on expression in E. coli” value is “soluble”.

For the sequence “MGSDKIHHHHHHMWQAISRLLSEQLGEGEIELRNELPGGEVHAAWHLRYAGHDFFVKCDERELLPGFTAEADQLELLSRSKTVTVPKVWAVGADRDYSFLVMDYLPPRPLDAHSAFILGQQIARLHQWSDQPQFGLDFDNALSTTPQPNTWQRRWSTFFAEQRIGWQLELAAEKGIAFGNIDAIVEHIQQRLASHQPQPSLLHGDLWSGNCALGPDGPYIFDPACYWGDRECDLAMLPLHTEQPPQIYDGYQSVSPLPADFLERQPVYQLYTLLNRARLFGGQHLVIAQQSLDRLLAA”, the “soluble on expression in E. coli” value was “not soluble”.

Turning to “MGSDKIHHHHHHMKIAVLSGKGGTGKTLVAVNLAAAAQRSTYIDCDVEEPNGHLFFKPEILQEEEITVKIPRVEDTLCQGCRRCVDFCQFNALAYIKEKLLVFEDVCHSCGGCILLCPEKALTEQEKGIGKVQKGLSDQVRVYTGVLNIGEVSGVPIIKKLLNENKSDKNEPESDQLTFIDCPPGSACSVMESIKDADYCLLVAEPTLFGVHNLNMVHELVKIFNKPCGVVLNKSLEGENPAETFCLEKNIKILSRLPFDHELGRLNSNAEIAVRKSEPYKALFSALLETVTKEVQHETAAYS”, the “soluble on expression in E. coli” value is “not soluble”.

Take “MGSDKIHHHHHHMKQVSIIGAGIGGLTAAVRLQKLGYNVTIYEQNAQPGGKMNQIVSQGFTFDVGPTIVMMKDIYEEVFRFCGVDPHNYLPFEEVQPLMHLVFGDQSSLDLSRDLPTLIAEINRIAPDDVNGMLNFLADIYHRYTIAKPNFLERSFRNWRDFYNLPALYAGLQLRTFNNAYKNIAKFIKNENLRNSLAFQTLYIGISPYQGPSLYNIIPMIELFYGVYFLKGGMYTVVNSLVKLFKEQGGTLKLATPVQEIIIKDKVAVGIRVNNHPIHSDYVLCNADFPTAMTTLIPNEQDRGQYTDQKIAKMDYSCSCLVLYLGLDKKYPTEALHTIHFAQDFSKNVADLFDNGKLPEDPSYYVYVPSKMDPSLAPENSEALYVLVPVPELSKFNDWSPTTLKNYRQLIINKLRQTATFSDIEQHIVVEKQFTPVDFKEQFGAYNGATFGLRPTLKQSNYYRPHNKFDYADHLYFCGSSTHPGAGVPIVMQSAKLAVEELIKDDQTNA”: the “soluble on expression in E. coli” value was “not soluble”.

For the sequence “MSLSIFEHFQARYEAAKDEELSIQDFLALCKENKSAYANAAERLLLAIGEPEMIDTSKHSRLSRIFSNRVIARYKTFEDFYGMEEAIEQIVAYLKHAAQGLEERKQILYLLGPVGGGKSSLAEKLKALMQQMPIYVLSANGQRSPVNDHPFCLFDVNEDGELLKQEYGIDRRYLRSIMSPWAAKRLHEFGGDITKFKVVKVRPSILDQIAVAKTEPGDENNQDISSLVGKVDIRKLEHFSQDDPDAYSYSGALCRANQGLMEFVEMFKAPIKVLHPLLTATQEGNYNGTEGLSALPFDGMILAHSNESEWQTFRNNKNNEAFLDRVYIVKVPYCLRVSEEVKIYQKLLDHSELSKAPCAPSTLDLLAQFSVLSRLKVPENSSLFSKMRVYDGETLKDTDPKAKSYQEYRDYAGVDEGMSGLSTRFAFKILSRVFNFDHSEVAANPVHLFYVIEQQVEREGHHHHHH”, the “soluble on expression in E. coli” value is “not soluble”.

Regarding “MGGMLRRLEVQNLAVIREAALDFAPGLNVLTGETGAGKSLLVDALALLLGGRAEGLIGPYGESLLVTAFFEGPPGEAVLSRRVGARSTPRVDGEVVTLKELQAEAERRLSLHAQHTALALLSPRRQREALDALLPEGLLAAYQEAYARREALLKEKAALEESLKARAEREDLLRYQIREIEEARVRPGEEEELLALAERLRHLETIRERLARALALLTEREAQDLLALAAKEVRAAARHDPALEALAEELSGAAEAVRAVARELEDHLEGLDLDPEELDRVEARLSLLERLKRKYGPTLADVLAHAQKAREELARMEGGEERLSEVERLLKALHEEVEARGQALRRAREEAARRLTEGMVRELPALGLAGARFAVVLEPLPEPGPQGLEAVAFRVAPNPNLPPAPLEALSGGELSRVALALALLTGTEAPTVVFDEVDAGVGGETAWRLAERLKRLAERRQVLVVTHLPQVAAVAQRHFRVTKTPEGVRVEPLAGEARVKEIARLLSGAYTQAALAHARELLEAQGAL”, the “soluble on expression in E. coli” value was “soluble”.

For “MSLERTTHQSLNGSWQFQPVAATLHVTPQLQAPAGGWKKINVPDNWYRQGHDISGYAWYQTRFALDAHNASRVAHLVFHGVDYSADVWLNDRYLGHHTGYFQPFEFDVTGLVKPGENQLRVLVNSPLEQPQDWSLHKRLVKGIFSHHDTRPGGAWSERGQEKNTGGIWAPVELQFADRAAVRQLQVTPRKQATEANPQQWVVSTEADIHHDVSHETSVTVEARILPENFKGASFAFKQSQTLQPGGNHIAFSFPVDNPALWWPYEYGHPNLYRLELSVKDASGKLLDQREQVFGVREVKVDDGLQWFINGRRMFLRGTNYIASQWLAEMTPDRYRRDLEMMQAAHINAVRVHAHVTGQDFYELCDRMGILVTQDFPLLWGYSDDPDFIAEARRQAKDMVQLLQRHPSIISWTMHNEPPWDSPWMAQKYPDYHPDINRRLDALLYEDVSKLDTLRVVRKESATKEHEWMGWYFDHWLAFSRPAPTPWSTEFGAQALPNLKSLERMFSKALLWPDTEAKWQVWEYHNFQRKETFEFAGVKQGGNIEEFIANSQHYQARLIQFAVENYRRQRYAPVSAVFQFMFVENWPSINWGIVDYWREPKAGYEALRVAYQPVLPSLEWKQDEYEAGASPRIGLWAINDTWSGFEHASYTVTLYREGKPLDMLKLPLEMLPDSGYKLRDYALPVLEKGQYEIKAEITGQDGKSMGRNQYRFSVKEGHHHHHH”, the “soluble on expression in E. coli” value was “soluble”.

With “MPSSRGVSLSISLAEAEVAPGGMLRGEVKVKVDSSHKNGIVYEAIRLVFLAVEKSCVWDDQGEFDELLNKYTSSRVYLDRHVTLTGFKTQSEDAETTAQVREEMLFLQHCATPYAAVAPTKPKKDAYRHYTREELLHGAIQMAATTKYTTGGVVAPDTNDSTNICMGSQKPVQAGDGPRSAAAAPRGGATEVEFPVLMPGTHRFPFLFRLPPWLPPSFYYSFVGAKGQLQYSASATMLFPGNGAGSWWFKICKDTSGAMRDMGKTFNRAAGSGAPSGKRARKRPGRDESGEGVIDLDDDEVGERMNRRLTSMPVYGPSDLTTAIHFDVLSVMPRRQLVAEYYQIDTHNLHQRPTNAPREAENAVSSSSNRNGAKKLQRRVDKSNDVGDVKPSGVSTGLLEHHEDTHLALSALYQTFRCGWLGNMCCLQPQNAIEAEVLVVGARTVLLADDVGALQALGVRPPITSDAPQLGGPALHAPDIVPSPDMAVAAPNTPWPVGGITLRVRVRNYCPTHTVECVRVELKVMLEIFKSLKTPHTFPGISYSSFDYTIPIPPGNQALFDVRLGLAPRFRRHETDSESLLPPPGVRTANMTSNTFLQVSFPGMYTYVEEEEEAKGVVIMAETVNLNDEVLELPVRYS”, the “soluble on expression in E. coli” value is “not soluble”.

With “MDYIKGIAFDLYGTLFDVHSVVGRCDEAFPGRGREISALWRQKQLEYTWLRSLMNRYVNFQQATEDALRFTCRHLGLDLDARTRSTLCDAYLRLAPFSEVPDSLRELKRRGLKLAILSNGSPQSIDAVVSHAGLRDGFDHLLSVDPVQVYKPDNRVYELAEQALGLDRSAILFVASNAWDATGARYFGFPTCWINRTGNVFEEMGQTPDWEVTSLRAVVELFETAAGKAEKG”, the “soluble on expression in E. coli” value is “soluble”.

On to “GPGSMVLIECKRLPKDEYSKDYDVFLVSIPGVTNIGEATDVLQQMRNTRVRIKWMMAAAKQLAKDFCSEEQQHHLLGPVADAERYMSLERAERRLTCTQKELDDLVDAFKGGAMILFPAECSGTDAVKRLAQLLDDDNTTDTERSKAHRLLSIIDDGATTEDILQGVATMWWSGKQLDRAADFTKYVGKNEKTKITVKLTAKDAPAPPREPALDAKAQSELMAYYFRKQEEMKKMIEDEDLSYGNSAWANPQGLKSQLHGFDSVKFKPG”, for which the “soluble on expression in E. coli” value is “soluble”.

For “MGSDKIHHHHHHKGHRVTGSDANVYPPMSTQLEDQGIELIQGFDPSQLGEAGHYPDLVVIGNAMSRGNPCVEAVLNIGIPYTSGPQFLADHILPERWVLAVSGTHGKTSTSSMLAWILDDCGYEPGFLIGGVPQNFGVSARLGKTAFFVVEADEYDSAFFDKRSKFVHYHPRTLVINNLEFDHADIFADLAAIQKQFNHLVRTVPGEGKIVWPADSHAVKQTIDMGCWSEQETYHLAESANGWYGKALSDDCHRFEVFFDGESQGILEWDLIGQHNIENAMMAIAAARHVGVKPSAAIEALAKFMPPKRRLELLGTVNGVSVYDDFAHHPTAIATTLKGMRAKVGQSKITVVLEPRSNTMKSGVHKDTLAFSMMQADEAFLYQADTIDWNMKEAMEAAVIPVTVLHQIDDVVAKVTATAKAGDTIVVMSNGGFGGLHKKLLAALELRSTVELV”, the “soluble on expression in E. coli” value is given as “not soluble”.

Take “MRGSHHHHHHGMASHMATEQTAITRATFDEVILPVYAPADFIPVKGKGSRVWDQQGKEYIDFAGGIAVTALGHCHPALVEALKSQGETLWHTSNVFTNEPALRLGRKLIDATFAERVLFMNSGTEANETAFKLARHYACVRHSPFKTKIIAFHNAFHGRSLFTVSVGGQPKYSDGFGPKPADIIHVPFNDLHAVKAVMDDHTCAVVVEPIQGEGGVQAATPEFLKGLRDLCDEHQALLVFDEVQCGMGRTGDLFAYMHYGVTPDILTSAKALGGGFPVSAMLTTQEIASAFHVGSHGSTYGGNPLACAVAGAAFDIINTPEVLQGIHTKRQQFVQHLQAIDEQFDIFSDIRGMGLLIGAELKPKYKGRARDFLYAGAEAGVMVLNAGADVMRFAPSLVVEEADIHEGMQRFAQAVGKVVA”: the “soluble on expression in E. coli” value is listed as “soluble”.
